US20230381228A1 (University of California, published 2023)

B1: anti-DPP6 nanobody 2hD1 (VHH)
VHH: QVQLQESGGGLVQPGGSLRLSCAASGYPYGYTFSSYCMRWFRQAPGKDREGVARFERNGLTTYYDDSVKGRFTISQDNVKNTVYLQMNSLKPEDTATYYCAAAPKQLRTCGDYNYWGQGTQVTVSS
B2: anti-DPP6 nanobody 4hD29 (VHH)
VHH: QVQLQESGGGLVQPGGSLRLSCAASGFTFSSNYMTWVRQAPGKGPEWVSGINPDGSSTYYADSVKGRFTISRDNAKNTLYLQMNSLKSEDTALYKCATGAAPRIPTTLRGQGTQVTVSS
B3: anti-DPP6 nanobody 2hD6 (VHH)
VHH: QVQLQESGGGSVQAGGSLRLSCAASSYTYSYSCMAWFRQAPGKERERVASIHTGTGTANYADSAKGRFTISQDIAANTVYLQMNSLKLEDTAMYYCAARPGSAALRCTTDYSKPHDFTYWGQGTQVTVSS
B4: anti-DPP6 nanobody 2hD123-A24V (VHH)
VHH: QVQLQESGGGSVQAGGSLRLSCAVSGSSYSRFRMGWFRQVPGKEREGVAAIYRSDGRTYYADSVKGRFTISQDNTKNTVYLQMNSLKPEDTAMYYCAAGAYSSYLMDANFAYWGQGTQVTVSS

Target: T1, dipeptidyl aminopeptidase-like protein 6 (DPP6), human isoform 1 (human, UniProt P42658 117-865, limits assumed)
T1 construct: also called DPPX; DPP6 L
Experiment: affinity, method not stated (Table 1-4)

T1 sequence (P42658 117-865 limits assumed): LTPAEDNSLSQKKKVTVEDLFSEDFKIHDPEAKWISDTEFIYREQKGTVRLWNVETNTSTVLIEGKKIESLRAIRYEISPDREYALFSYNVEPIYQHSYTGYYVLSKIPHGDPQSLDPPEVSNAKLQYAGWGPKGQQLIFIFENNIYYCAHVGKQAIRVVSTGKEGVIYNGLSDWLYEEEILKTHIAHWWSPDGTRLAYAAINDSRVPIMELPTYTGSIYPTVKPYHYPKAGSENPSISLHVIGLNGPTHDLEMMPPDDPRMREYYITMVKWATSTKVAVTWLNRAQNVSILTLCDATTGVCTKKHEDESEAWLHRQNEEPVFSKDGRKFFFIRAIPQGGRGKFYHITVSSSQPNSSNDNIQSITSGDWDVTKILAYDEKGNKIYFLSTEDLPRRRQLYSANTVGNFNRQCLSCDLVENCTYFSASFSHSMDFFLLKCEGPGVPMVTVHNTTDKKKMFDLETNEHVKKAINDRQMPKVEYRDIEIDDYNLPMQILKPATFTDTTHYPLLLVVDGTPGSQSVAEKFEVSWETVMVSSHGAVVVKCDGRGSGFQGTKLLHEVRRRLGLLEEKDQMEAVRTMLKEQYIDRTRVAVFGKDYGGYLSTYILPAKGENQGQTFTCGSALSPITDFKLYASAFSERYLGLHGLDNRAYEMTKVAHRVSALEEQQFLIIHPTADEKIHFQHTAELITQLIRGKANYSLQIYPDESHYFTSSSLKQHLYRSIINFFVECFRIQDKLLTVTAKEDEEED

| Binder | Kd |
| --- | --- |
| B1 | 69 nM |
| B2 | 1.2 nM |
| B3 | 13 nM |
| B4 | 27.2 nM |
